For data set [1], the target named is T1, La-module (La+RRM) (human, UniProt Q9BRS8 81-298).
T1 sequence: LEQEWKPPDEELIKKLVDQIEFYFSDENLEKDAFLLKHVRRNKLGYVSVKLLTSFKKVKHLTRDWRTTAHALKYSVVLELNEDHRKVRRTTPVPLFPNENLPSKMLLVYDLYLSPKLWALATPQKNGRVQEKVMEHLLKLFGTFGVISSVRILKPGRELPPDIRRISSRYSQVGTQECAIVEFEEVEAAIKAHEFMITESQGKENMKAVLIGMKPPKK
The data set can be described thus: fluorescence polarization. For orientation: Fluorescence polarisation rises when a labelled molecule tumbles more slowly, as on binding a larger partner.

A further data set concerns the target T2, La-module N122A (human, UniProt Q9BRS8 81-298, N122A).
T2 sequence: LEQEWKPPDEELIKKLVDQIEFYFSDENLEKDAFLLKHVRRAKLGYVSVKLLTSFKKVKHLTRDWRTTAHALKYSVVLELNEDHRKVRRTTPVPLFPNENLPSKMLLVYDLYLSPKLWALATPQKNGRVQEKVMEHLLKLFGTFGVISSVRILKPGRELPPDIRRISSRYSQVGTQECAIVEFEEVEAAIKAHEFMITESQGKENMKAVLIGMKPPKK
The data set can be described thus: EMSA.

For the next data set, the target named is T3, La-module K123A (human, UniProt Q9BRS8 81-298, K123A).
T3 sequence: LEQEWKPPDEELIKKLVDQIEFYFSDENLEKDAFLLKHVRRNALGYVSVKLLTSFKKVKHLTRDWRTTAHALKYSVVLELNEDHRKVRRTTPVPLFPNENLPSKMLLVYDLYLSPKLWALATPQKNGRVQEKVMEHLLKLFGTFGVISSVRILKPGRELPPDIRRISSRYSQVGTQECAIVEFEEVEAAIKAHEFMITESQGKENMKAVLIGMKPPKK
The data set can be described thus: EMSA. On the technique in general: In EMSA bound probe runs differently from free probe, usually more slowly.

The next data set deals with T4, La-module R121A (human, UniProt Q9BRS8 81-298, R121A).
T4 sequence: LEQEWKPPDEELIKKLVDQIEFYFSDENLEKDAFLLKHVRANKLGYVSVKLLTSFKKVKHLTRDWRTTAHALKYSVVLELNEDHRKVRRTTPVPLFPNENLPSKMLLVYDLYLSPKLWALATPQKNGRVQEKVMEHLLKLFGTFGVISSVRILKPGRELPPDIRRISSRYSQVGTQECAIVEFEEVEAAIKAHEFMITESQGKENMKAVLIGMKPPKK
Kind of data set: EMSA.

The target in a further data set is T5, RRM domain (human, UniProt Q9BRS8 183-298).
T5 sequence: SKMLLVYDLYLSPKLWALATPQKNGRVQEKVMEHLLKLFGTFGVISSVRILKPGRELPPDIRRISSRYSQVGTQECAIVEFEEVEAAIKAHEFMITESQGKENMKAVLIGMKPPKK
Kind of data set: EMSA.

The target of data set [2] is T1, La-module (La+RRM). Kind of data set: EMSA.
The target in the next data set is La-domain (human, UniProt Q9BRS8 81-182). Kind of data set: EMSA.

B1: α2(I) 5'SL (structured_RNA)
RNA: CACAAGGAGUCUGCAUGUCUAAGUGCUAGACAUGCUCAGCUUUGUG
For B1, the binding result with La-module (La+RRM) [1] is recorded as “binds”; in the data set with La-module N122A it was “binds”; with La-module K123A, “binds”; with La-module R121A it was “binds”; in the data set with RRM domain it was “no binding”.

B2: α1(I) 5'SL (structured_RNA)
RNA: CCACAAAGAGUCUACAUGUCUAGGGUCUAGACAUGUUCAGCUUUGUGG
B2: the binding result in the data set with La-module (La+RRM) [2] and with La-domain was “binds” in each case.

For the origin of these results see doi:10.1101/2020.09.30.320564.
